From publication PMC11187071, “The binding mechanism of an anti-multiple myeloma antibody to the human GPRC5D homodimer” (Nature Communications, 2024) come the findings set out here.

Changes are numbered by the printed parent chain.

Data set [1] has as its target T1, WT GPRC5D expressed on HEK293T cells (Homo sapiens, UniProt Q9NZD1).
T1 construct: human GPRC5D, UniProt Q9NZD1; also called GPRC5D-WT; source: HEK293T, transiently transfected, on cells
The experiment in a line: flow cytometry on cells; HEK293T cells transiently transfected with WT or mutated GPRC5D, incubated with purified IgG150_18 at different concentrations for 60 min, detected with goat anti-human IgG (Fc specific)-FITC at 4 °C; % of total, normalized to expression level. The settings on record: one partner purified. A general note: In flow cytometry, cells or beads pass a laser one at a time.

Data set [2] deals with the molecule itself. The experiment in a line: cryo-EM structure; GPRC5D and scFv150_18 co-expressed in Hi5 insect cells, complex purified by TALON IMAC and Superdex 200 in LMNG/CHS, 20 mM HEPES pH 7.4, 100 mM NaCl; C2 symmetry, 3.34 Å.

B1: IgG150-18 with a single mutation at Y228 (HCDR2) (antibody, V domains shown)
VH: QVQLVESGGGLVHPGGSLRLSCAASGFTFRSHSMNWVRQAPGKGLEWVSSISSDSTYTAYADSVKGRFTISRDNAKNSLYLQMNSLRAEDTAVYYCARSGGQWKYYDYWGQGTLVTVSS
VL: SSELTQDPAVSVALGQTVRITCQGDSLRSYYASWYQQKPGQAPVLVIYGKNNRPSGIPDRFSGSSSGNTASLTITGAQAEDEADYYCNSRDSSGNPPVVFGGGTKLTVL
notes: as the heavy chain variable domain of m3 (from scFv m2, PDB 8YZK) with a single mutation at Y228 (HCDR2; number as printed for the scFv); human IgG heavy chain constant region; as the light chain of m3; Residue number counts as in the scFv structure, not on the IgG heavy chain; also called Y228 mutant antibody; source: HEK-293F, transfected, purified (protein A, Superdex 200)
As to B1, the binding result in data set [1] is given as “binds”.

B2: IgG150-18 (scFv150-18 cloned into human IgG format) (antibody, V domains shown)
VH: B1 VH with A59Y
VL: B1 VL
notes: heavy chain variable domain as in the scFv m2 (PDB 8YZK); human IgG heavy chain constant region; light chain variable domain as in the scFv m2 (PDB 8YZK); human light chain constant region; also called antibody150_18; scFv150_18 in its IgG format; source: HEK-293F, transfected, purified (protein A, Superdex 200)
B2 registered an EC50 in data set [1] of around 4.6 nM.

B3: human GPRC5D (residues 1-298) with N-terminal BRIL fusion, cryo-EM construct (receptor, UniProt Q9NZD1 1-298, looked up)
chain: MYKDCIESTGDYFLLCDAEGPWGIILESLAILGIVVTILLLLAFLFLMRKIQDCSQWNVLPTQLLFLLSVLGLFGLAFAFIIELNQQTAPVRYFLFGVLFALCFSCLLAHASNLVKLVRGCVSFSWTTILCIAIGCSLLQIIIATEYVTLIMTRGMMFVNMTPCQLNVDFVVLLVYVLFLMALTFFVSKATFCGPCENWKQHGRLIFITVLFSIIIWVVWISMLLRGNPQFQRQPQWDDPVVCIALVTNAWVFLLLYIVPELCILYRSCRQECPLQGNACPVTAYQHSFQVENQELSR
notes: human GPRC5D, UniProt Q9NZD1, residues 1-298; Order at the N-terminus as printed: haemagglutinin signal peptide, Flag tag, BRIL, then GPRC5D 1-298, HRV 3C site, 10x His; Membranes were treated with iodoacetamide before solubilisation; also called hGPRC5D; GPRC5D homodimer; not shown: BRIL (thermostabilized E. coli apocytochrome b562RIL), N-terminal, kept; 10x His, C-terminal, kept
For the molecule B3, the “stoichiometry N” value in data set [2] came out at 2.

Broadly, the EC50 is the concentration giving half of the maximal effect. Low readings indicate an effect from little substance, high ones a need for much substance. The stoichiometry N is a count of units in the complex or per binding partner.
